Results on 1 molecule are retold here after US20250051463A1, “CD123 ANTIBODY-DRUG CONJUGATES AND METHODS OF USING THE SAME” (ASTRAZENECA AB, priority 2023, published 2025).

Data set [1] relates to subcutaneous EOL-1 tumors. Nature of the data set: EOL-1 subcutaneous xenograft study. Type of data set: in vivo, Nude mice. Particulars: 0.24 mg/kg at a single dose. As for the experimental part:
EOL-1 cells that express about 2,000 CD123/IL3Rα per cell were maintained in the RPMI-1640 medium containing 10% heat-inactivated FBS and were cultured in a humidified atmosphere of 5% CO2 and at a temperature of 37° C. On the day of implantation, cells were spun down at 1500 rpm for 5 minutes, counted, and resuspended to a final concentration of 50×10^6 cells/mL in PBS. Female Nude mice were each injected subcutaneously in the right flank with 10×10^6 cells in 200 μL volume. When average tumor volume reached ˜150-250 mm^3 on Day 9, mice were randomized into treatment groups using the Matched Distribution method built into the Study Director software.
Test and control ADC were diluted from a stock solution with vehicle buffer (20 mM histidine, 240 mM sucrose, 0.02% Polysorbate 80, pH 6.0) and were administered as a single intravenous (IV) injection according to body weight.
Tumor volume and body weight were measured twice weekly from Day 6 to Day 60 after EOL-1 implant. Tumors were measured by caliper and the volumes of tumors were calculated using the following formula:
Tumor Volume=[length (mm)×width (mm)^2]/2; where the length and the width are the longest and shortest diameters of the tumor respectively.

The subject of data set [2] is RPMI-8226. Description: CellTiter-Glo cell viability, 3 days. Type of data set: cell-based. As for the experimental part:
(§1) The CD123-expressing endothelial cell lines HUVEC and HPAEC and control cell lines RPMI-8226 (high CD123 expressing) and K562 (low expressing or negative for CD123) were cultured and co-incubated with Comparator-1 ADC, NIP228-SG3932 (isotype control for HT12-GL-SG3932) HT12-GL-SG3932, or CD123 mAb (HT12-GL) for 3 days at concentrations ranging from 0.0017 to 520 μg/mL for CD123 mAb, HT12-GL-SG3932, or NIP228-SG3932) or 0.0010 to 320 μg/mL for IMGN-IGN). Cell viability was assessed by CellTiter-Glo Cell Viability Assay and IC50 for viability was calculated (when possible) for each compound for each cell line. Expression of CD123 was assessed by western blot surface expression or by flow cytometry (FIG. 9C-9H).
On the technique in general: In ATP-based viability assays light output follows the ATP content of the culture.

Data set [3] deals with HUVEC. Nature of the data set: CellTiter-Glo cell viability, 3 days. Type of data set: cell-based. On the procedure: as §1
Data set [4] relates to HPAEC. Description: CellTiter-Glo cell viability, 3 days. Type of data set: cell-based. As for the experimental part:
as §1

Data set [5] has as its system K562. Description: CellTiter-Glo cell viability, 3 days. Type of data set: cell-based. On the procedure:
as §1

B1: pivekimab sunirine (conjugate, chains of the INN, looked up)
VH: QVQLVQSGAEVKKPGASVKVSCKASGYIFTSSIMHWVRQAPGQGLEWIGYIKPYNDGTKYNEKFKGRATLTSDRSTSTAYMELSSLRSEDTAVYYCAREGGNDYYDTMDYWGQGTLVTVSS
VL: EIQMTQSPSSLSASVGDRVTITCRASQDINSYLSWFQQKPGKAPKTLIYRVNRLVDGVPSRFSGSGSGNDYTLTISSLQPEDFATYYCLQYDAFPYTFGQGTKVEIK
modifications: sunirine payload
On to B1, for which, in data set [1], the “anti-tumor effect (tumor volume)” value is listed as “complete tumor regression”. Also, in data set [2], the “Cytotoxicity (Viability IC50) RPMI-8226” value was determined as 53.9 µg/mL. Also, the “Cytotoxicity (Viability IC50) HUVEC” value in data set [3] was determined as 6.9 µg/mL. Further, the “Cytotoxicity (Viability IC50) HPAEC” value in data set [4] stood at 6.0 µg/mL. Besides, the “Cytotoxicity (Viability IC50) K562” value in data set [5] came out at 10.3 µg/mL.
